The record followed here is patent publication US20220144960A1 (NANJING LEGEND BIOTECH, published 2022).

Numbering of substitutions follows the chain as printed. Read-outs that look alike come from different tables or passages of the source.

Assay [1] deals with T1, rhesus CD30 ECD (rhesus, UniProt P28908 19-379 (human entry)).
T1 construct: Produced in house; also called recombinant rhesus CD30; rhesus CD30 protein
T1 chain: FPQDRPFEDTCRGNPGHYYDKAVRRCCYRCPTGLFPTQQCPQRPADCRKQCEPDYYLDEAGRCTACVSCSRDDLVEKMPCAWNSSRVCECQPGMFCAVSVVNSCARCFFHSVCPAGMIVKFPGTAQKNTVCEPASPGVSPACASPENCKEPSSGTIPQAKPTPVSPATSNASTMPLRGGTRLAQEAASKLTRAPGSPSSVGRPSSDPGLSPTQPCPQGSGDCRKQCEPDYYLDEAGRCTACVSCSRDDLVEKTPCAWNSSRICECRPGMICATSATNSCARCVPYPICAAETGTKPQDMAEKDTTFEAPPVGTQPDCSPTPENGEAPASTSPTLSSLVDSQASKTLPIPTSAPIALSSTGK
The assay is described as follows: ELISA on rhesus CD30 ECD protein; member of the group by paragraph 437. In general terms: An ELISA detects its analyte on a solid surface through an enzyme-linked reagent.

Assay [2] has as its target T2, recombinant human CD30 extra cellular domain (ECD) protein (human, UniProt P28908 19-379).
T2 construct: Bought from R&D systems; also called rhCD30; human CD30 ECD
T2 sequence: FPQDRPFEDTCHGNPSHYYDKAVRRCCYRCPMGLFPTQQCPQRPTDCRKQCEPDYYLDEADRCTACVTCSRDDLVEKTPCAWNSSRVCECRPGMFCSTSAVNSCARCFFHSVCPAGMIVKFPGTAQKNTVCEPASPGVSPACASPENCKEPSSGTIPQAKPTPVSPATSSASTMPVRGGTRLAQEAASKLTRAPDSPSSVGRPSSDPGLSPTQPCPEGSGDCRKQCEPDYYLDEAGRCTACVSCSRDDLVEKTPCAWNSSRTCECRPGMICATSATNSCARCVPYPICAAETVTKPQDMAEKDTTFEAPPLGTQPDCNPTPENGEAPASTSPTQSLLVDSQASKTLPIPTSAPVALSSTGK
The assay is described as follows: SPR Biacore T200, His-tagged sdAb/Fab captured, 100.0 nM human CD30 as analyte, single curve. As to the method: (§1) Some of these unique binders were subjected to for further characterization by surface plasmon resonance (SPR) on a BIAcore T200 instrument (GE Healthcare). The experiment was carried out as follows. The crude sdAb/Fab proteins were captured through an affinity tag (6×Histidine tag) onto the sensorchip. High-concentration (100.0 nM) of human CD30 (R&D systems, Cat. #6126-CD) flowed over the sensorchip surface, and were allowed to bind the antibody fragments for 300 s followed by injection of the running buffer to allow dissociation of the complex. On-rate ([…] and off-rate (kd) were roughly calculated based on one association and dissociation curve, and were used to estimate the equilibrium dissociation constant (KD). 5F11 scFv (SEQ ID NO:216, prepared according to WO2017066122) was used as a positive control. Data were summarized in Table 3 below. The first 10 antibodies in Table 3 were sdAbs with amino acid sequence ID numbers summarized in Table 1, the last antibody was 5F11 scFv, and the remainings were human Fabs with CDR and scFv amino acid sequence ID numbers in Table 2.

Assay [3] concerns the target T3, human CD30 CRD5 (R241-E282) Fc fusion protein with human IgG1 Fc fragment at the C terminus (human).
T3 construct: also called CRD5 construct
The assay is described as follows: SPR, captured Fab, Fc-fused CRD protein as analyte. The procedure: as §1
(§2) Cysteine rich domains (CRDs) of human CD30 and the flanking residues, i.e., CRD1 (F19-Q68, SEQ ID NO: 3), CRD2 (R66-E107, SEQ ID NO: 4), CRD3 (E107-5153, SEQ ID NO: 5), CRD4 (E150-Q243, SEQ ID NO: 6), CRD5 (R241-E282, SEQ ID NO: 7) and CRD6 (E282-K379, SEQ ID NO: 8), were produced as Fc fusion proteins with human IgG1 Fc fragment (SEQ ID NO: 217) at the C terminus and used for epitope determination using SPR following the protocol similar to what was described above, only the analytes used were human IgG1 Fc-fused CRD proteins.

Assay [4] addresses T4, human CD30 CRD6 (E282-K379) Fc fusion protein with human IgG1 Fc fragment at the C terminus (human).
T4 construct: also called CRD6 construct
The assay is described as follows: SPR, captured Fab, Fc-fused CRD protein as analyte. The procedure: as §1, §2
On the technique in general: Surface plasmon resonance follows binding to a sensor surface in real time, without labels.

The target of assay [5] is T5, human CD30 CRD1 (F19-Q68) Fc fusion protein with human IgG1 Fc fragment at the C terminus (human).
T5 construct: also called CRD1 construct
The assay is described as follows: SPR, captured Fab, Fc-fused CRD protein as analyte. The procedure: as §1, §2

The target in assay [6] is T6, human CD30 CRD4 (E150-Q243) Fc fusion protein with human IgG1 Fc fragment at the C terminus (human).
T6 construct: also called CRD4 construct
The assay is described as follows: SPR, captured Fab, Fc-fused CRD protein as analyte. The procedure: as §1, §2

Assay [7] concerns the target T7, human CD30 CRD3 (E107-S153) Fc fusion protein with human IgG1 Fc fragment at the C terminus (human).
T7 construct: also called CRD3 construct
The assay is described as follows: SPR, captured Fab, Fc-fused CRD protein as analyte. The procedure: as §1, §2

The target in assay [8] is T8, human CD30 CRD2 (R66-E107) Fc fusion protein with human IgG1 Fc fragment at the C terminus (human).
T8 construct: also called CRD2 construct
The assay is described as follows: SPR, captured Fab, Fc-fused CRD protein as analyte. The procedure:
as §1, §2

Assay [9] concerns the target T4, human CD30 CRD6 (E282-K379) Fc fusion …. The assay is described as follows: ELISA on the CD30 fragment CRD6, absorbance OD 450 nm; sdAb concentration not given.
Assay [10] has as its target T9, CD30 on CD30-expressing tumor cell lines (HH, MJ, H9) (UniProt P28908 19-595).
T9 sequence (looked up): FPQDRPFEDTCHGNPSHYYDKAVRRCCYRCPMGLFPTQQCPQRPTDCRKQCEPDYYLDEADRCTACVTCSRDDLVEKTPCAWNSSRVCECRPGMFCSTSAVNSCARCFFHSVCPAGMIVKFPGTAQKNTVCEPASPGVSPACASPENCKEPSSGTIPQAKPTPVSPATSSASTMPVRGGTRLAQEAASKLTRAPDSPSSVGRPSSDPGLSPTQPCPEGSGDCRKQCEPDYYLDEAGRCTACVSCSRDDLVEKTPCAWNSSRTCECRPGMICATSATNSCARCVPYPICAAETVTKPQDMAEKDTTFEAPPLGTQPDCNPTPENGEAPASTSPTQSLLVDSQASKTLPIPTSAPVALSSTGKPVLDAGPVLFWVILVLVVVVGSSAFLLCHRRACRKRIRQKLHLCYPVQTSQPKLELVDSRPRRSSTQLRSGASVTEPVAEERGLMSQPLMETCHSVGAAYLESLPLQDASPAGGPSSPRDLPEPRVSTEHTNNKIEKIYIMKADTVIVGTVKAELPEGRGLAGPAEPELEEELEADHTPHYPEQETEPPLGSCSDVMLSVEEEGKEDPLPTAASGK
The assay is described as follows: cell-based or functional assay.

In assay [11] the target is T9, CD30 on CD30-expressing tumor cell …. The assay is described as follows: cell-based or functional assay. The source holds these as a separate data set.
Assay [12] shares this target. The assay is described as follows: cell-based or functional assay. This is another data set of the same source.

T4 sequence (chain, as listed by the source limits assumed): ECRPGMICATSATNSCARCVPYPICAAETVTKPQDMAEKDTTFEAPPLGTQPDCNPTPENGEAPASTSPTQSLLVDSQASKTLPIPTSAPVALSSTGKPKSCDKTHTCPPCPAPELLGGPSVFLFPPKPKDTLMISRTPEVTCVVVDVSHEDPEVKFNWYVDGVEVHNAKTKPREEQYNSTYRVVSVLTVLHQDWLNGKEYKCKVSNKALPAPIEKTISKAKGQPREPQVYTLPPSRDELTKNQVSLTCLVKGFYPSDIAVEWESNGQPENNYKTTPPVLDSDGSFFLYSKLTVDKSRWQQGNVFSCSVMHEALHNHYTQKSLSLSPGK
T6 sequence (chain, as listed by the source limits assumed): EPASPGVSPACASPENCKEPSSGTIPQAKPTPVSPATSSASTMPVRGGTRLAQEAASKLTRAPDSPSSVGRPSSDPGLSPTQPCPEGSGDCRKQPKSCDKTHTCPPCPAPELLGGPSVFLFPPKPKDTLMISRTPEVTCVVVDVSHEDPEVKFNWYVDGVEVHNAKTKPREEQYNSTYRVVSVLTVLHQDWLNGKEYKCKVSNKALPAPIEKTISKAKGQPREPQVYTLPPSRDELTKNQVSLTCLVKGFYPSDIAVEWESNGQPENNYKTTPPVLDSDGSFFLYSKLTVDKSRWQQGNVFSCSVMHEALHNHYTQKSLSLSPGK

B1: AS57765 human Fab (Fab, V domains shown)
VH: EVQLVESGGGLVQPGGSLRLSCAASGFNIYYSYMHWVRQAPGKGLEWVAYIYPYSGSTSYADSVKGRFTISADTSKNTAYLQMNSLRAEDTAVYYCARPAVHWHGYGGGYYYGLDYWGQGTLVTVSS
VL: DIQMTQSPSSLSASVGDRVTITCRASQSVSSAVAWYQQKPGKAPKLLIYSASSLYSGVPSRFSGSRSGTDFTLTISSLQPEDFATYYCQQAYYSLITFGQGTKVEIK
notes: Human Fab from a synthetic human Fab library, crude protein from E. coli with 6xHistidine tag
Take B1: the binding result in assay [1] is on record as “binds”; in [3], “no binding”; in [4] it was “no binding”; in assay [5], “no binding”; in assay [6], “no binding”; in assay [7], “no binding”. Moreover, in assay [8], the binding result was “no binding”. Also, in assay [2], the Kd came to 11 nM. Besides, the koff in assay [2] was 0.0011 s⁻¹. For the same molecule, the kon in assay [2] was 98000 M⁻¹ s⁻¹. Also, the “rhCD30 Binding (RU)” value in assay [2] is 37.7 RU.

B2: AS47863 sdAb (VHH)
VHH: QVQLEESGGGSVQAGETLRLSCTASGSTFGDSDMGWYRQAPGNACELVSIISSDGRTYYVDSVKGRFTISQDNAVSTVYLQMNSLKPEDTGVYYCAADLRQYCRDGRCCGYWGQGTQVTVSS
notes: Camel sdAb
Regarding B2, the binding result in assay [9] was “binds”. Moreover, in assay [1], the binding result is reported as “binds”. In [2], the Kd amounted to 29 nM, the koff stood at 0.0042 s⁻¹, the kon was 140000 M⁻¹ s⁻¹ and the “rhCD30 Binding (RU)” value was found to be 119 RU.

B3: AS48433 sdAb (VHH)
VHH: B2 VHH with V2I, E5V, K86N, Q101L, Y102N
notes: Camel sdAb
Turning to B3, the binding result in assay [9] is “binds”. Besides, the binding result in assay [1] is listed as “binds”. In assay [2], the Kd was determined as 25 nM, the koff was 0.0023 s⁻¹, the kon came to 93000 M⁻¹ s⁻¹ and the “rhCD30 Binding (RU)” value stood at 83.5 RU.

B4: AS54233 sdAb (VHH)
VHH: QVQLVESGGGSVQAGETLRLSCTASGFTFDGPDMAWYRQAPGNECELVSIISADGRTYYTDSVKGRFTASQDNAKNTVSLYLKSLQPEDTAVYYCAADPRRNCRGNCCGNWGPGTQVTVSS
notes: Camel sdAb
Take B4: the binding result in assay [9] was “binds”. The binding result in assay [1] is “binds”. Besides, in assay [2], the Kd came to 76 nM, the koff turned out to be 0.0046 s⁻¹, the kon came to 61000 M⁻¹ s⁻¹ and the “rhCD30 Binding (RU)” value was found to be 59.2 RU.

B5: AS48542bbz CAR (other)
chain: QMQLVESGGGSVQAGETLRLSCTTSAFTFDGPDMAWYRQAPGNECVLVSIISADGRTYYADSVKGRFTISRDNAKNTVFLNLNSLQPEDTAVYYCALDPRKNCRGGYCCANWGPGTQVTVSSTTTPAPRPPTPAPTIASQPLSLRPEACRPAAGGAVHTRGLDFACDIYIWAPLAGTCGVLLLSLVITLYCKRGRKKLLYIFKQPFMRPVQTTQEEDGCSCRFPEEEEGGCELRVKFSRSADAPAYKQGQNQLYNELNLGRREEYDVLDKRRGRDPEMGGKPRRKNPQEGLYNELQKDKMAEAYSEIGMKGERRRGKGHDGLYQGLSTATKDTYDALHMQALPPR
On to B5, for which, in [10], the “% H9 cell lysis E:T = 5:1 (LDH assay, CAR T cells)” value stood at 64% and the “% MJ cell lysis E:T = 1:1 (LDH assay, CAR T cells)” value came out at 58.5%. Besides, the “% MJ cell lysis E:T = 0.5:1 (LDH assay, CAR T cells)” value in assay [11] was found to be 58.4%. In addition, in assay [12], the “% H9 cell lysis E:T = 2:1 (LDH assay, CAR T cells)” value worked out at 50% and the “% MJ cell lysis E:T = 1:1 (LDH assay, CAR T cells)” value amounted to 55%.

B6: AS48463 sdAb (VHH)
VHH: QVHLMESGGGSVQAGETLRLSCTASGFTFANSDMGWYRQAPGNACELVSIISSHGGTTYYVDSVKGRFTISRHNAENTVYLRMTSLKPEDTALYYCVADPRSNCRGGYCCGYWGPGTQVTVSS
notes: Camel sdAb
On to B6, for which the binding result in assay [9] is given as “binds”. Also, the binding result in assay [1] was “binds”. In assay [2], the Kd came to 30 nM, the koff worked out at 0.01 s⁻¹, the kon came to 340000 M⁻¹ s⁻¹ and the “rhCD30 Binding (RU)” value was found to be 106 RU.

B7: AS48542 sdAb (VHH)
VHH: QMQLVESGGGSVQAGETLRLSCTTSAFTFDGPDMAWYRQAPGNECVLVSIISADGRTYYADSVKGRFTISRDNAKNTVFLNLNSLQPEDTAVYYCALDPRKNCRGGYCCANWGPGTQVTVSS
notes: Camel sdAb
On to B7, for which the binding result in assay [9] is recorded as “binds”. Besides, the binding result in assay [1] was “binds”. In addition, in assay [2], the Kd amounted to 19 nM, the koff is 0.0024 s⁻¹, the kon was 120000 M⁻¹ s⁻¹ and the “rhCD30 Binding (RU)” value worked out at 60.8 RU.

B8: AS48508 sdAb (VHH)
VHH: EVQLVESGGGSVQAGGSLRLSCTASRFTFDGPDMAWYRQAPGNACELVSIISADGRTYYTDSVKGRFTISRDNAKNTVFLYLNSLQPEDTAVYYCAPDPRRNCRGGYCCGNWGPGTQVTVSS
notes: Camel sdAb
Take B8: the binding result in assay [9] is on record as “binds”. The binding result in assay [1] was “binds”. Moreover, in assay [2], the Kd stood at 31 nM, the koff stood at 0.0061 s⁻¹, the kon is 200000 M⁻¹ s⁻¹ and the “rhCD30 Binding (RU)” value was 69.8 RU.

B9: AS53750 sdAb (VHH)
VHH: B8 VHH with S11L, A14P, R26G, F29D, Q39R, A44E, Y107D
notes: Camel sdAb
For the molecule B9, the binding result in assay [9] was “binds”. In assay [1], the binding result is on record as “binds”. Further, in assay [2], the Kd was determined as 130 nM, the koff was 0.0069 s⁻¹, the kon came out at 56000 M⁻¹ s⁻¹ and the “rhCD30 Binding (RU)” value stood at 284 RU.

As usually defined, the Kd is the constant that tells how readily two partners part at equilibrium. The koff is a measure of how fast the partners let go of each other. What is called kon is the rate constant with which the complex forms.
